Measured values from patent US20030148956A1 (PROCTER AND GAMBLE, published 2003).
Positions count from the first letter of the chain named. Blank lines part the entries; values can stand above or below the binder they belong to. Ends that are not written are not given here.

Tests used:
CRF2R = target: T1, CRF2R; assay: cell-based or functional assay
T1 sequence (Q13324 whole entry, species assumed, looked up): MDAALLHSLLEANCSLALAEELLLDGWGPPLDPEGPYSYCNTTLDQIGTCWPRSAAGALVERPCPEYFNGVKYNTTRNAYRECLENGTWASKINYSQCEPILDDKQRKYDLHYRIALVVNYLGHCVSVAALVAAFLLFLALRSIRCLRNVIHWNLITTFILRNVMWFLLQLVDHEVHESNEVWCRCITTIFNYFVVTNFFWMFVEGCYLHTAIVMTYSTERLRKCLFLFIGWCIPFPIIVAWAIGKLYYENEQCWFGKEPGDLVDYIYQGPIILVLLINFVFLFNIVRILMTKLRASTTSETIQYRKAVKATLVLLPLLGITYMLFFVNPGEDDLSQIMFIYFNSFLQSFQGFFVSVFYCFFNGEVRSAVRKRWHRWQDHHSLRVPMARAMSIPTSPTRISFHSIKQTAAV

CRF1R = assay: cell-based or functional assay

- CRF2R EC50 (CRF2R): 20.6 nM
- CRF2R Emax (CRF2R): 100%
- CRF1R EC50 (CRF1R): > 1000 nM
- CRF1R Emax (CRF1R): 48%
B1: SEQ ID NO 51 (peptide)
peptide: ZGPPISIDLPTLLLRKMIEIEKQEKEKQQAANNRLLLDTI
modifications: C-terminal amide

- CRF2R EC50 (CRF2R): 5.85 nM
- CRF2R Emax (CRF2R): 81%
- CRF1R EC50 (CRF1R): 34.5 nM
- CRF1R Emax (CRF1R): 88%
B2: SEQ ID NO 69 (peptide)
peptide: B1 peptide with T11F, L12H
modifications: C-terminal amide

- CRF2R EC50 (CRF2R): 10 nM
- CRF2R Emax (CRF2R): 50%
- CRF1R EC50 (CRF1R): 44.2 nM
- CRF1R Emax (CRF1R): 96%
B3: SEQ ID NO 67 (peptide)
peptide: B1 peptide with T11F, L12E
modifications: C-terminal amide

- CRF2R EC50 (CRF2R): 43.4 nM
- CRF2R Emax (CRF2R): 100%
- CRF1R EC50 (CRF1R): > 100 nM
- CRF1R Emax (CRF1R): 5%
B4: SEQ ID NO 77 (peptide)
peptide: B1 peptide with T11I, L12H
modifications: C-terminal amide

- CRF2R EC50 (CRF2R): 100 nM
- CRF2R Emax (CRF2R): 11%
- CRF1R EC50 (CRF1R): 1000 nM
- CRF1R Emax (CRF1R): 10%
B5: SEQ ID NO 54 (peptide)
peptide: B1 peptide with T11D, L12Y
modifications: C-terminal amide

- CRF2R EC50 (CRF2R): 94.8 nM
- CRF2R Emax (CRF2R): 56%
- CRF1R EC50 (CRF1R): > 100 nM
- CRF1R Emax (CRF1R): 6%
B6: SEQ ID NO 71 (peptide)
peptide: B1 peptide with L12E
modifications: C-terminal amide

- CRF2R EC50 (CRF2R): 24.6 nM
- CRF2R Emax (CRF2R): 78%
- CRF1R EC50 (CRF1R): > 100 nM
- CRF1R Emax (CRF1R): 6%
B7: SEQ ID NO 78 (peptide)
peptide: B1 peptide with T11I, L12Q
modifications: C-terminal amide

- CRF2R EC50 (CRF2R): 50.4 nM
- CRF2R Emax (CRF2R): 87%
- CRF1R EC50 (CRF1R): > 100 nM
- CRF1R Emax (CRF1R): 14%
B8: SEQ ID NO 56 (peptide)
peptide: B1 peptide with T11S, L12Y
modifications: C-terminal amide

- CRF2R EC50 (CRF2R): > 100 nM
- CRF2R Emax (CRF2R): 27%
- CRF1R EC50 (CRF1R): > 100 nM
- CRF1R Emax (CRF1R): 10%
B9: SEQ ID NO 59 (peptide)
peptide: B1 peptide with L12N
modifications: C-terminal amide

- CRF2R EC50 (CRF2R): 6.53 nM
- CRF2R Emax (CRF2R): 88%
- CRF1R EC50 (CRF1R): > 100 nM
- CRF1R Emax (CRF1R): 55%
B10: SEQ ID NO 80 (peptide)
peptide: B1 peptide with T11L, L12Q
modifications: C-terminal amide

- CRF2R EC50 (CRF2R): 2.34 nM
- CRF2R Emax (CRF2R): 100%
- CRF1R EC50 (CRF1R): 11 nM
- CRF1R Emax (CRF1R): 84%
B11: SEQ ID NO 85 (peptide)
peptide: B1 peptide with T11F, L12Y
modifications: C-terminal amide

- CRF2R EC50 (CRF2R): > 100 nM
- CRF2R Emax (CRF2R): 10%
- CRF1R EC50 (CRF1R): > 1000 nM
- CRF1R Emax (CRF1R): 13%
B12: SEQ ID NO 52 (peptide)
peptide: B1 peptide with L12P
modifications: C-terminal amide

- CRF2R EC50 (CRF2R): 67.9 nM
- CRF2R Emax (CRF2R): 64%
- CRF1R EC50 (CRF1R): > 100 nM
- CRF1R Emax (CRF1R): 16%
B13: SEQ ID NO 65 (peptide)
peptide: B1 peptide with T11R, L12Y
modifications: C-terminal amide

- CRF2R EC50 (CRF2R): 91.5 nM
- CRF2R Emax (CRF2R): 76%
- CRF1R EC50 (CRF1R): > 100 nM
- CRF1R Emax (CRF1R): 7%
B14: SEQ ID NO 76 (peptide)
peptide: B1 peptide with T11I, L12E
modifications: C-terminal amide

- CRF2R EC50 (CRF2R): 7.95 nM
- CRF2R Emax (CRF2R): 95%
- CRF1R EC50 (CRF1R): 11.6 nM
- CRF1R Emax (CRF1R): 92%
B15: SEQ ID NO 55 (peptide)
peptide: B1 peptide with T11W, L12Y
modifications: C-terminal amide

- CRF2R EC50 (CRF2R): > 100 nM
- CRF2R Emax (CRF2R): 46%
- CRF1R EC50 (CRF1R): > 100 nM
- CRF1R Emax (CRF1R): 12%
B16: SEQ ID NO 57 (peptide)
peptide: B1 peptide with T11P, L12Y
modifications: C-terminal amide

- CRF2R EC50 (CRF2R): 22.3 nM
- CRF2R Emax (CRF2R): 100%
- CRF1R EC50 (CRF1R): > 100 nM
- CRF1R Emax (CRF1R): 8%
B17: SEQ ID NO 79 (peptide)
peptide: B1 peptide with T11I, L12Y
modifications: C-terminal amide

- CRF2R EC50 (CRF2R): > 100 nM
- CRF2R Emax (CRF2R): 44%
- CRF1R EC50 (CRF1R): > 100 nM
- CRF1R Emax (CRF1R): 8%
B18: SEQ ID NO 60 (peptide)
peptide: B1 peptide with L12R
modifications: C-terminal amide

- CRF2R EC50 (CRF2R): > 100 nM
- CRF2R Emax (CRF2R): 52%
- CRF1R EC50 (CRF1R): > 100 nM
- CRF1R Emax (CRF1R): 5%
B19: SEQ ID NO 75 (peptide)
peptide: B1 peptide with T11I, L12G
modifications: C-terminal amide

- CRF2R EC50 (CRF2R): 63.3 nM
- CRF2R Emax (CRF2R): 94%
- CRF1R EC50 (CRF1R): 68.9 nM
- CRF1R Emax (CRF1R): 57%
B20: SEQ ID NO 64 (peptide)
peptide: B1 peptide with T11N, L12Y
modifications: C-terminal amide

- CRF2R EC50 (CRF2R): 18.2 nM
- CRF2R Emax (CRF2R): 82%
- CRF1R EC50 (CRF1R): > 100 nM
- CRF1R Emax (CRF1R): 8%
B21: SEQ ID NO 70 (peptide)
peptide: B1 peptide with L12Y
modifications: C-terminal amide

- CRF2R EC50 (CRF2R): > 100 nM
- CRF2R Emax (CRF2R): 55%
- CRF1R EC50 (CRF1R): > 100 nM
- CRF1R Emax (CRF1R): 4%
B22: SEQ ID NO 72 (peptide)
peptide: B1 peptide with L12Q
modifications: C-terminal amide

- CRF2R EC50 (CRF2R): > 100 nM
- CRF2R Emax (CRF2R): 95%
- CRF1R EC50 (CRF1R): > 1000 nM
- CRF1R Emax (CRF1R): 19%
B23: SEQ ID NO 53 (peptide)
peptide: B1 peptide with T11I, L12S
modifications: C-terminal amide

- CRF2R EC50 (CRF2R): 71.6 nM
- CRF2R Emax (CRF2R): 100%
- CRF1R EC50 (CRF1R): > 100 nM
- CRF1R Emax (CRF1R): 16%
B24: SEQ ID NO 58 (peptide)
peptide: B1 peptide with T11K, L12Y
modifications: C-terminal amide

- CRF2R EC50 (CRF2R): 10.9 nM
- CRF2R Emax (CRF2R): 90%
- CRF1R EC50 (CRF1R): 96.2 nM
- CRF1R Emax (CRF1R): 85%
B25: SEQ ID NO 82 (peptide)
peptide: B1 peptide with T11L, L12E
modifications: C-terminal amide

- CRF2R EC50 (CRF2R): 67.3 nM
- CRF2R Emax (CRF2R): 100%
- CRF1R EC50 (CRF1R): 73.2 nM
- CRF1R Emax (CRF1R): 34%
B26: SEQ ID NO 63 (peptide)
peptide: B1 peptide with T11G, L12Y
modifications: C-terminal amide

- CRF2R EC50 (CRF2R): 1.91 nM
- CRF2R Emax (CRF2R): 81%
- CRF1R EC50 (CRF1R): 52.2 nM
- CRF1R Emax (CRF1R): 96%
B27: SEQ ID NO 83 (peptide)
peptide: B1 peptide with T11L, L12H
modifications: C-terminal amide

- CRF2R EC50 (CRF2R): 1.77 nM
- CRF2R Emax (CRF2R): 100%
- CRF1R EC50 (CRF1R): 82.2 nM
- CRF1R Emax (CRF1R): 99%
B28: SEQ ID NO 84 (peptide)
peptide: B1 peptide with T11F, L12Q
modifications: C-terminal amide

- CRF2R EC50 (CRF2R): 55 nM
- CRF2R Emax (CRF2R): 100%
- CRF1R EC50 (CRF1R): > 100 nM
- CRF1R Emax (CRF1R): 7%
B29: SEQ ID NO 74 (peptide)
peptide: B1 peptide with L12H
modifications: C-terminal amide

- CRF2R EC50 (CRF2R): > 100 nM
- CRF2R Emax (CRF2R): 89%
- CRF1R EC50 (CRF1R): > 100 nM
- CRF1R Emax (CRF1R): 12%
B30: SEQ ID NO 61 (peptide)
peptide: B1 peptide with L12A
modifications: C-terminal amide

- CRF2R EC50 (CRF2R): > 100 nM
- CRF2R Emax (CRF2R): 11%
- CRF1R EC50 (CRF1R): > 100 nM
- CRF1R Emax (CRF1R): 11%
B31: SEQ ID NO 73 (peptide)
peptide: B1 peptide with L12G
modifications: C-terminal amide

- CRF2R EC50 (CRF2R): 38.5 nM
- CRF2R Emax (CRF2R): 74%
- CRF1R EC50 (CRF1R): > 100 nM
- CRF1R Emax (CRF1R): 33%
B32: SEQ ID NO 68 (peptide)
peptide: B1 peptide with T11F, L12G
modifications: C-terminal amide

- CRF2R EC50 (CRF2R): 100 nM
- CRF2R Emax (CRF2R): 14.7%
- CRF1R EC50 (CRF1R): 100 nM
- CRF1R Emax (CRF1R): 5.3%
B33: SEQ ID NO 87 (peptide)
peptide: SQEPPISLDLTIHLLREVLEMTKADQLAQQAHSNRKLLDIA-NH2

- CRF2R EC50 (CRF2R): 100 nM
- CRF2R Emax (CRF2R): 12%
- CRF1R EC50 (CRF1R): 100 nM
- CRF1R Emax (CRF1R): 9%
B34: SEQ ID NO 5 (peptide)
peptide: IVLSLDVPGPLLQILLEQTKQEAAREQATTNARILARV-NH2

- CRF2R EC50 (CRF2R): 4.3 nM
- CRF2R Emax (CRF2R): 73%
- CRF1R EC50 (CRF1R): 60.9 nM
- CRF1R Emax (CRF1R): 81%
B35: SEQ ID NO 81 (peptide)
peptide: ZGPPISIDLPLYLLRKMIEIEKQEKEKQQAANNRLLLDT
modifications: C-terminal amide

- CRF2R EC50 (CRF2R): 100 nM
- CRF2R Emax (CRF2R): 8.1%
- CRF1R EC50 (CRF1R): 100 nM
- CRF1R Emax (CRF1R): 4.6%
B36: SEQ ID NO 86 (peptide)
peptide: SQEPPISLDLTIGLLREVLEMTKADQLAQQAHSNRKLLDIA-NH2

- CRF2R EC50 (CRF2R): 100 nM
- CRF2R Emax (CRF2R): 12.6%
- CRF1R EC50 (CRF1R): 100 nM
- CRF1R Emax (CRF1R): 11.2%
B37: SEQ ID NO 88 (peptide)
peptide: SQEPPISLDLTFGLLREVLEMTKADQLAQQAHSNRKLLDIA-NH2

- CRF2R EC50 (CRF2R): 31.5 nM
- CRF2R Emax (CRF2R): 10%
- CRF1R EC50 (CRF1R): 783 nM
- CRF1R Emax (CRF1R): 64%
B38: SEQ ID NO 1 (peptide)
peptide: IVLSLDVPIGLLQELLEMARAEQLAQQAHSNRKLMEII-NH2
